Patent US20250216395A1 (ATYR PHARMA, published 2025)

T1: NRP1v2 (22-602) (human, UniProt O14786 22-602)
T1 construct: Recombinant protein; also called human NRP1
T1 sequence: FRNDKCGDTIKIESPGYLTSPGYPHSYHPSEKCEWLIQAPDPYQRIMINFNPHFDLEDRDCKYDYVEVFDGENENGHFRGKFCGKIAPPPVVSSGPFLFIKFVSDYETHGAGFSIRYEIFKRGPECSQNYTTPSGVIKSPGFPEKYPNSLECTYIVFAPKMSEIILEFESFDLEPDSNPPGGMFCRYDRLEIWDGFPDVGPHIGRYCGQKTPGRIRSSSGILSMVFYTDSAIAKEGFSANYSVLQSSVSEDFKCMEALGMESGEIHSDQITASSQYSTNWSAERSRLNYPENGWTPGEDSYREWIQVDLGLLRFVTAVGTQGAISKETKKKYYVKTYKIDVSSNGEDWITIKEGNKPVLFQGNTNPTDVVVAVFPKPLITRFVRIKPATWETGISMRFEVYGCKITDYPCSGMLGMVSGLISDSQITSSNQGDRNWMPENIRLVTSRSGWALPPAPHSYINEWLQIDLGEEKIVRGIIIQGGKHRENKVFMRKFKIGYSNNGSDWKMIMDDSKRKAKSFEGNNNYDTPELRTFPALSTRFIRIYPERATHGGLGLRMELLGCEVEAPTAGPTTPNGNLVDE

B1: blocking peptide NRP2 (642-659) (peptide)
peptide: SGFNCNFDFLEEPCGWMY
notes: Peptide corresponding to residues 642-659 of NRP2
B2: aNRP2-36v2 (antibody, V domains shown)
VH: ELQLQQSGPELVKPGASVKISCKASGYSFTDYNMNWVKQSNGKSLEWIGVINPKSGTTVYNQKFKGKATLTVDQSSSTAYMQLNSLTSEDSAVYYCARADSSGGCWGQGTTLTVSS
VL: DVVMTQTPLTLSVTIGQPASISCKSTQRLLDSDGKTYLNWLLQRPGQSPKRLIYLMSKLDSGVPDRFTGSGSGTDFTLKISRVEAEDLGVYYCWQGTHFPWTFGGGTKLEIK
notes: Three purification lots were tested; also called antibody aNRP2-36v2; anti-NRP2 antibody

Tests used:
[1] = target: B2; experiment: Western blot competition: 1 ug/mL aNRP2-36v2 with 5 ug/mL blocking peptide; the blocked detection is that of NRP2v2 (23-855) and of NRP2a isoform 2 in lysate
Protocol: The specificity of aNRP2-36v2 in Western blotting was also confirmed by the ability of the blocking peptide NRP2 (642-659) (SEQ ID NO: 25) to block binding. For these studies, 100 ng of NRP2v2 (23-855) (SEQ ID NO: 14) recombinant protein and 20 ug of total protein from cell lysates of Expi293 cells transiently expressing NRP2a isoform 2 (SEQ ID NO: 10) were denatured for 10 minutes at 70° C. with 1×LDS (ThermoFisher, NP0007) and separated on a 4-12% Bis-Tris Protein Gel (ThermoFisher, NP0335) in 1×MOPS buffer (ThermoFisher, NP000102). The gel was then transferred to a nitrocellulose membrane (Fisher, cat. #IB23001) using an iBlot2 (Fisher, cat. #IB21001) for 7 min at 20V. The membrane was blocked for 1 hour using a 5% milk 0.05% TBST solution, followed by 1 ug/mL of aNRP2-36v2 antibody with or without 5 ug/mL blocking peptide, diluted in 5% milk 0.05% TBST. A peptide corresponding to NRP2v2 (809-820) (SEQ ID NO: 26) was also used as a control. Antibody was incubated on the blots overnight at 4° C. with rocking. After overnight incubation 3 washes with 0.05% TBST for 5 minutes each were performed and goat-a-mouse HRP secondary (Jackson Immuno Research, 115-035-071) diluted at 1:5,000 in the 5% milk mixture was applied to the blots for 1 hour. This was followed by 3 more washes with 0.05% TBST for 5 minutes each. […]

[2] = target: T1, NRP1v2 (22-602); experiment: Western blot, denatured recombinant protein with or without 50 mM DTT
Protocol: To characterize the binding specificity of antibody aNRP2-36v2 to different denatured isoforms of NRP2 its binding specificity was tested via western blot. In addition to assessing the relative binding to NRP2a and NRP2b, cross-reactivity to mouse and rat NRP2 were also evaluated, as well as non-specific binding to NRP1. The proteins tested via Western were NRP2v2 (23-855) (SEQ ID NO: 14), NRP2v5 (23-832) (SEQ ID NO: 27), mouse NRP2v2 (23-855) (SEQ ID NO: 21), rat NRP2×2 (23-854) (SEQ ID NO: 22), and NRP1v2 (22-602) (SEQ ID NO: 24).
25 ng of each recombinant protein was denatured for 10 minutes at 70° C. with 1×LDS (ThermoFisher, NP0007) with or without 50 mM DTT and separated on a 4-12% Bis-Tris Protein Gel (ThermoFisher, NP0335) in 1×MOPS buffer (ThermoFisher, NP000102). The gel was then transferred to a nitrocellulose membrane (Fisher, cat. #IB23001) using an iBlot2 (Fisher, cat. #IB21001) for 7 min at 20V. The membrane was blocked for 1 hour using a 5% milk 0.05% TBST solution, followed by 1.0 ug/mL of the three lots of aNRP2-36v2 antibody diluted in 5% milk 0.05% TBST. Antibody was incubated on the blots overnight at 4° C. with rocking. After overnight incubation 3 washes with 0.05% TBST for 5 minutes each were performed and goat-a-mouse HRP secondary (Jackson Immuno Research, 115-035-071) diluted at 1:5,000 in the 5% milk mixture was applied to the blots for 1 hour. […]

aNRP2-36v2, sequence (VL, as listed by the source): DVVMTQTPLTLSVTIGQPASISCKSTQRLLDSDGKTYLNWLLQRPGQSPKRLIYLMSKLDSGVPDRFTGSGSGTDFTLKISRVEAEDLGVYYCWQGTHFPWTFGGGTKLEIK

| binding result [1] | binding result [2] | Binder |
| --- | --- | --- |
| binds | – | B1 |
| – | no binding | B2 |
